Results taken from patent US20250154231A1.
Where two headings read alike, the source gives them in different places.

Tests used:
Experiment in all cases: cell-based or functional assay
[1] = molecular target: SARS-CoV-2 spike (S) protein, Omicron BA.2 (SARS-CoV-2) (UniProt P0DTC2)
[2] = molecular target: SARS-CoV-2 spike (S) protein, Omicron BA.2.75 (SARS-CoV-2) (UniProt P0DTC2)
[3] = molecular target: SARS-CoV-2 spike (S) protein, Omicron BA.2 (SARS-CoV-2) (UniProt P0DTC2); remark: listed apart in the source
[4] = molecular target: SARS-CoV-2 spike (S) protein, Omicron BJ.1 (SARS-CoV-2) (UniProt P0DTC2)
[5] = molecular target: SARS-CoV-2 spike (S) protein, Omicron BA.4/5 (SARS-CoV-2) (UniProt P0DTC2)
[6] = molecular target: SARS-CoV-2 spike (S) protein, Omicron BA.2.75 (SARS-CoV-2) (UniProt P0DTC2); remark: listed apart in the source
[7] = molecular target: SARS-CoV-2 spike (S) protein, Omicron BA.2.75.2 (SARS-CoV-2) (UniProt P0DTC2)
[8] = molecular target: SARS-CoV-2 spike (S) protein, Omicron BA.2.3.20 (SARS-CoV-2) (UniProt P0DTC2)
[9] = molecular target: SARS-CoV-2 spike (S) protein, Victoria strain (SARS-CoV-2) (UniProt P0DTC2)
[10] = molecular target: SARS-CoV-2 spike (S) protein, Omicron BA.4.6 (SARS-CoV-2) (UniProt P0DTC2)
[11] = molecular target: SARS-CoV-2 spike (S) protein, Omicron BA.2 (SARS-CoV-2) (UniProt P0DTC2); remark: listed apart in the source
[12] = molecular target: SARS-CoV-2 Omicron BA.1.1 spike (S) protein (SARS-CoV-2) (UniProt P0DTC2)
[13] = molecular target: SARS-CoV-2 spike (S) protein, Omicron BA.4/5 (SARS-CoV-2) (UniProt P0DTC2); remark: listed apart in the source
[14] = molecular target: SARS-CoV-2 spike (S) protein, Omicron BA.1.1 (SARS-CoV-2) (UniProt P0DTC2)
[15] = molecular target: SARS-CoV-2 Beta spike (S) protein (SARS-CoV-2) (UniProt P0DTC2)
[16] = molecular target: SARS-CoV-2 Delta spike (S) protein (SARS-CoV-2) (UniProt P0DTC2)
[17] = molecular target: SARS-CoV-2 spike (S) protein, Omicron BA.3 (SARS-CoV-2) (UniProt P0DTC2)
[18] = molecular target: SARS-CoV-2 Omicron BA.2 spike (S) protein (SARS-CoV-2) (UniProt P0DTC2)
[19] = molecular target: SARS-CoV-2 spike (S) protein, Omicron BA.1 (SARS-CoV-2) (UniProt P0DTC2)
[20] = molecular target: SARS-CoV-2 Omicron BA.1 spike (S) protein of the live isolate (SARS-CoV-2) (UniProt P0DTC2)
[21] = molecular target: SARS-CoV-2 Victoria spike (S) protein (SARS-CoV-2) (UniProt P0DTC2)
[22] = molecular target: SARS-CoV-2 Alpha spike (S) protein (SARS-CoV-2) (UniProt P0DTC2)
[23] = molecular target: SARS-CoV-2 spike (S) protein, Victoria strain (SARS-CoV-2) (UniProt P0DTC2); remark: listed apart in the source
[24] = molecular target: SARS-CoV-2 spike (S) protein, Omicron BA.4.6 (SARS-CoV-2) (UniProt P0DTC2); remark: listed apart in the source
[25] = molecular target: SARS-CoV-2 Gamma spike (S) protein (SARS-CoV-2) (UniProt P0DTC2)
[26] = molecular target: SARS-CoV-2 spike (S) protein, Omicron BA.2 (SARS-CoV-2) (UniProt P0DTC2); remark: listed apart in the source
[27] = molecular target: SARS-CoV-2 spike (S) protein, Omicron BA.2.75 (SARS-CoV-2) (UniProt P0DTC2); remark: listed apart in the source
[28] = molecular target: SARS-CoV-2 Alpha (B.1.1.7) spike (S) protein (SARS-CoV-2) (UniProt P0DTC2)
[29] = molecular target: SARS-CoV-2 Omicron BA.1 spike (S) protein of the pseudovirus (SARS-CoV-2) (UniProt P0DTC2)
[30] = molecular target: SARS-CoV-2 Omicron BA.1 spike (S) protein, pseudovirus construct (SARS-CoV-2) (UniProt P0DTC2)
[31] = molecular target: SARS-CoV-2 Omicron BA.1.1 spike (S) protein, pseudovirus construct (SARS-CoV-2) (UniProt P0DTC2)
[32] = molecular target: SARS-CoV-2 Omicron BA.3 spike (S) protein, pseudovirus construct (SARS-CoV-2) (UniProt P0DTC2)
[33] = molecular target: SARS-CoV-2 spike (S) protein, Omicron BA.2.75 (SARS-CoV-2) (UniProt P0DTC2); remark: listed apart in the source
[34] = molecular target: SARS-CoV-2 Beta (B.1.351) spike (S) protein (SARS-CoV-2) (UniProt P0DTC2)
[35] = molecular target: SARS-CoV-2 Gamma (P.1) spike (S) protein (SARS-CoV-2) (UniProt P0DTC2)
[36] = molecular target: SARS-CoV-2 Omicron (BA.1) spike (S) protein, live virus isolate (SARS-CoV-2) (UniProt P0DTC2)
[37] = molecular target: SARS-CoV-2 Omicron BA.2 spike (S) protein, pseudovirus construct (SARS-CoV-2) (UniProt P0DTC2)
[38] = molecular target: SARS-CoV-2 Omicron BA.4/5 spike (S) protein (SARS-CoV-2) (UniProt P0DTC2)
[39] = molecular target: SARS-CoV-2 Omicron BA.3 spike (S) protein (SARS-CoV-2) (UniProt P0DTC2)

Omi-32 (antibody), sequence (VH): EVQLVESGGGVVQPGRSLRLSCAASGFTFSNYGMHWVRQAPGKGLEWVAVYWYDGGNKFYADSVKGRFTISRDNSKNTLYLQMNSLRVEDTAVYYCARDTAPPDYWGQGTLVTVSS
Omi-32 (antibody), sequence (VL): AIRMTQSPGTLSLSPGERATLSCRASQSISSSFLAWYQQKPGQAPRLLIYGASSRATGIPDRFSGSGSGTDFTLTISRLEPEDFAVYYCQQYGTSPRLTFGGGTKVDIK
AZD8895 (antibody), sequence (VH): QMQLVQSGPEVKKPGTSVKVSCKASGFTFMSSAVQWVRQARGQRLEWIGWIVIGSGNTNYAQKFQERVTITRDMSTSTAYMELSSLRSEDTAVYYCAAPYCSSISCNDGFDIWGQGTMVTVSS
AZD8895 (antibody), sequence (VL): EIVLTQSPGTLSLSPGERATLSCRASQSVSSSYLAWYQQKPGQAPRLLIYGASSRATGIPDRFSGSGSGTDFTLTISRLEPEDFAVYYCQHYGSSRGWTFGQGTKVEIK
Omi-42 (antibody), sequence (VH): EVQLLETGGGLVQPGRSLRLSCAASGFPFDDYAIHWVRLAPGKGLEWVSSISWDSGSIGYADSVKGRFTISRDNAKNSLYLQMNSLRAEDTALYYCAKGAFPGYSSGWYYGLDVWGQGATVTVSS
Omi-42 (antibody), sequence (VL): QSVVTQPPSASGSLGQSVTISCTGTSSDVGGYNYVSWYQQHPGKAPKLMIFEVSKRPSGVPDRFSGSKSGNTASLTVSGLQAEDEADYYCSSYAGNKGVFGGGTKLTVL

Substance: AZD8895 (antibody)
- pseudovirus neutralisation IC50 [1]: 1.99 µg/mL
- pseudovirus neutralisation IC50 [2]: 0.008 µg/mL
- IC50, pseudoviral neutralization [3]: 1.33 µg/mL
- IC50, pseudoviral neutralization [4]: 0.114 µg/mL
- IC50, pseudoviral neutralization [5]: > 10 µg/mL
- IC50, pseudoviral neutralization [6]: 0.008 µg/mL
- IC50, pseudoviral neutralization [7]: > 10 µg/mL
- IC50, pseudoviral neutralization [8]: 0.007 µg/mL
- IC50, pseudoviral neutralization [9]: 0.001 µg/mL
- IC50, pseudoviral neutralization [10]: > 10 µg/mL
- IC50, pseudoviral neutralization [11]: 1.33 µg/mL
- pseudovirus neutralisation IC50 [11]: 1.33 µg/mL
- IC50, authentic virus neutralization [12]: 6.08 µg/mL
- IC50, pseudoviral neutralization [13]: > 10 µg/mL
- pseudovirus neutralisation IC50 [13]: > 10 µg/mL
- IC50, pseudoviral neutralization [14]: 0.1 µg/mL
- pseudovirus neutralisation IC50 [14]: 0.1 µg/mL
- IC50, authentic virus neutralization [15]: 0.046 µg/mL
- IC50, authentic virus neutralization [16]: 0.003 µg/mL
- IC50, pseudoviral neutralization [17]: > 10 µg/mL
- pseudovirus neutralisation IC50 [17]: > 10 µg/mL
- IC50, authentic virus neutralization [18]: 7.7 µg/mL
- IC50, pseudoviral neutralization [19]: 0.246 µg/mL
- pseudovirus neutralisation IC50 [19]: 0.246 µg/mL
- IC50, authentic virus neutralization [20]: 1.15 µg/mL
- IC50, authentic virus neutralization [21]: 0.005 µg/mL
- IC50, authentic virus neutralization [22]: 0.011 µg/mL
- IC50, pseudoviral neutralization [23]: 0.001 µg/mL
- pseudovirus neutralisation IC50 [23]: 0.001 µg/mL
- IC50, pseudoviral neutralization [24]: > 10 µg/mL
- IC50, authentic virus neutralization [25]: 0.046 µg/mL

Substance: Omi-32 (antibody)
- IC50, pseudoviral neutralization [3]: 2.68 µg/mL
- IC50, pseudoviral neutralization [4]: > 10 µg/mL
- IC50, pseudoviral neutralization [5]: 0.035 µg/mL
- IC50, pseudoviral neutralization [6]: 0.354 µg/mL
- IC50, pseudoviral neutralization [7]: > 10 µg/mL
- IC50, pseudoviral neutralization [8]: > 10 µg/mL
- IC50, pseudoviral neutralization [9]: 0.01 µg/mL
- IC50, pseudoviral neutralization [10]: > 10 µg/mL
- pseudovirus neutralisation IC50 [26]: 2.61 µg/mL
- pseudovirus neutralisation IC50 [27]: 0.354 µg/mL
- pseudovirus neutralisation IC50 [11]: 2.68 µg/mL
- Authentic virus-IC50 [28]: 0.102 µg/mL
- IC50, authentic virus neutralization [12]: 4.64 µg/mL
- IC50, pseudovirus neutralization [12]: > 10 µg/mL
- IC50, pseudovirus neutralization [29]: 0.017 µg/mL
- Pseudovirus - IC50 [30]: 0.017 µg/mL
- Pseudovirus - IC50 [31]: > 10 µg/mL
- pseudovirus neutralisation IC50 [13]: 0.035 µg/mL
- pseudovirus neutralisation IC50 [14]: > 10 µg/mL
- IC50, authentic virus neutralization [15]: 0.46 µg/mL
- Authentic virus-IC50 [16]: 0.012 µg/mL
- IC50, authentic virus neutralization [16]: 0.012 µg/mL
- Pseudovirus - IC50 [32]: 1.02 µg/mL
- pseudovirus neutralisation IC50 [17]: 1.02 µg/mL
- pseudovirus neutralisation IC50 [33]: 0.354 µg/mL
- Authentic virus-IC50 [34]: 0.46 µg/mL
- IC50, authentic virus neutralization [18]: 1.9 µg/mL
- IC50, pseudovirus neutralization [18]: 2.68 µg/mL
- pseudovirus neutralisation IC50 [19]: 0.017 µg/mL
- IC50, authentic virus neutralization [20]: 0.024 µg/mL
- Authentic virus-IC50 [21]: 0.032 µg/mL
- IC50, authentic virus neutralization [21]: 0.032 µg/mL
- IC50, pseudovirus neutralization [21]: 0.01 µg/mL
- Pseudovirus - IC50 [21]: 0.01 µg/mL
- Authentic virus-IC50 [35]: 0.43 µg/mL
- Authentic virus-IC50 [36]: 0.024 µg/mL
- Pseudovirus - IC50 [37]: 2.68 µg/mL
- IC50, authentic virus neutralization [22]: 0.102 µg/mL
- pseudovirus neutralisation IC50 [23]: 0.01 µg/mL
- IC50, pseudovirus neutralization [38]: 0.035 µg/mL
- IC50, authentic virus neutralization [25]: 0.43 µg/mL
- IC50, pseudovirus neutralization [39]: 1.02 µg/mL

Substance: Omi-42 (antibody)
- IC50, pseudoviral neutralization [3]: 0.021 µg/mL
- IC50, pseudoviral neutralization [4]: 0.01 µg/mL
- IC50, pseudoviral neutralization [5]: 0.013 µg/mL
- IC50, pseudoviral neutralization [6]: 0.003 µg/mL
- IC50, pseudoviral neutralization [7]: 0.011 µg/mL
- IC50, pseudoviral neutralization [8]: 0.018 µg/mL
- IC50, pseudoviral neutralization [9]: 0.013 µg/mL
- IC50, pseudoviral neutralization [10]: 0.01 µg/mL
- pseudovirus neutralisation IC50 [26]: 0.021 µg/mL
- pseudovirus neutralisation IC50 [27]: 0.003 µg/mL
- pseudovirus neutralisation IC50 [11]: 0.021 µg/mL
- Authentic virus-IC50 [28]: 0.024 µg/mL
- IC50, authentic virus neutralization [12]: 0.017 µg/mL
- IC50, pseudovirus neutralization [12]: 0.006 µg/mL
- IC50, pseudovirus neutralization [29]: 0.007 µg/mL
- Pseudovirus - IC50 [30]: 0.007 µg/mL
- Pseudovirus - IC50 [31]: 0.006 µg/mL
- pseudovirus neutralisation IC50 [13]: 0.013 µg/mL
- pseudovirus neutralisation IC50 [14]: 0.006 µg/mL
- IC50, authentic virus neutralization [15]: 0.011 µg/mL
- Authentic virus-IC50 [16]: 0.019 µg/mL
- IC50, authentic virus neutralization [16]: 0.019 µg/mL
- Pseudovirus - IC50 [32]: 0.025 µg/mL
- pseudovirus neutralisation IC50 [17]: 0.025 µg/mL
- pseudovirus neutralisation IC50 [33]: 0.003 µg/mL
- Authentic virus-IC50 [34]: 0.011 µg/mL
- IC50, authentic virus neutralization [18]: 0.031 µg/mL
- IC50, pseudovirus neutralization [18]: 0.021 µg/mL
- pseudovirus neutralisation IC50 [19]: 0.007 µg/mL
- IC50, authentic virus neutralization [20]: 0.014 µg/mL
- Authentic virus-IC50 [21]: 0.016 µg/mL
- IC50, authentic virus neutralization [21]: 0.016 µg/mL
- IC50, pseudovirus neutralization [21]: 0.013 µg/mL
- Pseudovirus - IC50 [21]: 0.013 µg/mL
- Authentic virus-IC50 [35]: 0.013 µg/mL
- Authentic virus-IC50 [36]: 0.014 µg/mL
- Pseudovirus - IC50 [37]: 0.021 µg/mL
- IC50, authentic virus neutralization [22]: 0.024 µg/mL
- pseudovirus neutralisation IC50 [23]: 0.013 µg/mL
- IC50, pseudovirus neutralization [38]: 0.013 µg/mL
- IC50, authentic virus neutralization [25]: 0.013 µg/mL
- IC50, pseudovirus neutralization [39]: 0.025 µg/mL
